The values that follow come from patent publication US20180044427A1 (Janssen / Centocor, published 2018).

In experiment [1] the target is T1, recombinant human FcRn extracellular domain with a poly-histidine affinity tag (FcRn-His6) (human, UniProt P55899 24-297).
T1 construct: extracellular domain
The experiment can be described thus: competitive binding assay on plate-captured FcRn-His6 at pH 6.0; competitor: biotinylated human IgG1 indicator antibody at 1 µg/mL. The protocol: A competitive binding assay was used to assess relative affinities of different antibody samples to a recombinant human FcRn extracellular domain with a poly-histidine affinity tag (FcRn-His6). Ninety-six-well copper-coated plates (Thermo Scientific) were used to capture FcRn-His6 at 5 μg/mL in PBS, after which plates were washed with 0.15M NaCl, 0.02% Tween 20, and then incubated with blocking reagent (0.05M MES [2-(N-morpholino) ethanesulfonic acid], 0.025% bovine serum albumin (BSA), 0.001% Tween-20, pH 6.0, 10% chemiBLOCKER (Millipore)). […] Plates were incubated at room temperature for 1 hour, washed three times as above, and then incubated with a 1:10,000 dilution of streptavidin-horseradish peroxidase (HRP) (Jackson ImmunoResearch Laboratories) at room temperature for 30 minutes to bind biotinylated antibody. Plates were washed five times as above, and bound streptavidin-HRP detected by adding TMB (3,3′,5,5′-tetramethylbenzidine) peroxidase substrate with stable stop (Fitzgerald Industries International) and incubating for 4 minutes. Color development was stopped by addition of 0.5 M HCl. Optical densities were determined with a SpectraMax Plus384 plate reader (Molecular Devices) at 450 nm wavelength.

In experiment [2] the target is T2, human FcγRIIIA (NM_000569) (human, UniProt P08637 17-254).
T2 construct: Transiently expressed on Expi293F cells
T2 sequence (P08637 17-254 limits assumed): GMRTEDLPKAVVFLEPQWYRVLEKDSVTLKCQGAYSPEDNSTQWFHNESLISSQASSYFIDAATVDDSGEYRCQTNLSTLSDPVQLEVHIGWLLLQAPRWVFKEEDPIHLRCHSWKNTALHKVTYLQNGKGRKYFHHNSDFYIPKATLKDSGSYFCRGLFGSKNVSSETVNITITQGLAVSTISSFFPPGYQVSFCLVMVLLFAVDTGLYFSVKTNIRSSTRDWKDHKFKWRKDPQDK
The experiment can be described thus: flow cytometry on transiently transfected Expi293F cells. The protocol:
(§1) Plasmids expressing cDNAs encoding human FcγRI (NM_000566) (SEQ ID NO: 59), FcγRIIA (NM_021642) (SEQ ID NO: 60), FcγRIIB (NM_004001) (SEQ ID NO: 61), and FcγRIIIA (NM_000569) (SEQ ID NO: 62) (Origene) were transiently transfected into Expi293F cells by ExpiFectamine293 transfection kit (Life Technologies). Flow cytometry assays were performed 48 h after transfection. […] Raji cells (ATCC: CCL-86) were also employed to test the binding of anti-OX40 antibody to FcγRIIB receptor.
(§2) 2×10⁵ cells per well were seeded in 96-well plate and blocked in BSA Stain Buffer (BD Biosciences, San Jose, USA) for 30 min at 4° C. Cells were incubated with test antibody on ice for 1.5 h at 4° C. After being washed twice with BSA stain buffer, the cells were incubated with R-PE labeled anti-human or anti-mouse IgG secondary antibody (Jackson Immunoresearch Laboratories) for 45 min at 4° C. The cells were washed twice in stain buffer and then resuspended in 150 μL of Stain Buffer containing 1:200 diluted DRAQ7 live/dead stain (Cell Signaling Technology, Danvers, USA). PE and DRAQ7 signals of the stained cells were detected by Miltenyi MACSQuant flow cytometer (Miltenyi Biotec, Auburn, USA) using B2 and B4 channel respectively. Live cells were gated on DRAQ7 exclusion and the geometric mean fluorescence signals were determined for at least 10,000 live events collected. FlowJo software (Tree Star) was used for analysis. Data was plotted as the logarithm of antibody concentration versus mean fluorescence signals. Nonlinear regression analysis was performed by GraphPad Prism 6 (GraphPad Software, Inc.) and EC₅₀ values were calculated.
(§3) The binding of engineered anti-OX40 SF2 antibodies to various FcγR receptors expressed on transiently-transfected Expi293F cells were assessed by flow cytometry as described in Example 3.
(Flow cytometry measures light scatter and fluorescence of single cells or particles in a stream.)

Experiment [3] addresses T3, human FcγRIIB (NM_004001) (human, UniProt P31994 43-310).
T3 construct: Transiently expressed on Expi293F cells
T3 sequence: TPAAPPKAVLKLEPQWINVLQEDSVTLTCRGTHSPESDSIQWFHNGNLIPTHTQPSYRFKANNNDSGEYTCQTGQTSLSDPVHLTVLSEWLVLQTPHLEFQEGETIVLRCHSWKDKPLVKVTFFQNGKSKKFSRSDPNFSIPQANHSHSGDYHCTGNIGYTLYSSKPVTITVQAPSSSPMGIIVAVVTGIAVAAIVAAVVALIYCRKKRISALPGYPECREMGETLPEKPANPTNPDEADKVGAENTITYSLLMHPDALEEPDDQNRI
The experiment is described as above. On the procedure:
as §1, §2, §3

Another experiment deals with T4, human FcγRI (NM_000566) (human, UniProt P12314 16-374).
T4 construct: Transiently expressed on Expi293F cells
T4 sequence (P12314 16-374 limits assumed): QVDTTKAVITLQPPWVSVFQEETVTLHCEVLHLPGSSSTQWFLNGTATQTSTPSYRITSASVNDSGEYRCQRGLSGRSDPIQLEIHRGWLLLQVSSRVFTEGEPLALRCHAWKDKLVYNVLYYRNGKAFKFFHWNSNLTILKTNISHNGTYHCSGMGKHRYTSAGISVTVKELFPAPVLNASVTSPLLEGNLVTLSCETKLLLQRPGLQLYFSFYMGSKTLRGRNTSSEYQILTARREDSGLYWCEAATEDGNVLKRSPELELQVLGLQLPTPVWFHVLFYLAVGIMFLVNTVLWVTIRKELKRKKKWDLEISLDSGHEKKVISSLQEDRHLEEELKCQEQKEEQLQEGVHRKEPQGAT
Described as above. On the procedure: as §1, §2, §3

Experiment [4] deals with T5, human FcγRIIA (NM_021642) (human, UniProt P12318 36-317).
T5 construct: Transiently expressed on Expi293F cells
T5 sequence: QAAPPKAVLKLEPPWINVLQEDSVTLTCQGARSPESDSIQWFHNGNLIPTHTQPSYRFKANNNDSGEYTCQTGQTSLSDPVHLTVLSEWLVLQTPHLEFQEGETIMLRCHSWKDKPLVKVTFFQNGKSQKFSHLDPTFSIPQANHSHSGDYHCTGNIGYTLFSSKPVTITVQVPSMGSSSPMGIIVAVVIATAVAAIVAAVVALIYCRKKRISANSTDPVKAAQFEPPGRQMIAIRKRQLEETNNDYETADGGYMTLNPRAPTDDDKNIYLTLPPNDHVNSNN
Described as above. The protocol:
as §1, §2, §3

T1 sequence (P55899 24-297, form in doubt): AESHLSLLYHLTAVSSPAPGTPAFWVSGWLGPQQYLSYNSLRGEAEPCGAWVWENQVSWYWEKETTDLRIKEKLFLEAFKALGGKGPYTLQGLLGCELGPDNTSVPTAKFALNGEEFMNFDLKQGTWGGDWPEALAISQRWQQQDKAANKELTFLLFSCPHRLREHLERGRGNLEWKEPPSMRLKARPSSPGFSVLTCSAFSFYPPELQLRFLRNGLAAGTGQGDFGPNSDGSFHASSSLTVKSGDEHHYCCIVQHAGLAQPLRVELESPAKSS

B1: OX40SF2IgG1T437R (antibody)
heavy: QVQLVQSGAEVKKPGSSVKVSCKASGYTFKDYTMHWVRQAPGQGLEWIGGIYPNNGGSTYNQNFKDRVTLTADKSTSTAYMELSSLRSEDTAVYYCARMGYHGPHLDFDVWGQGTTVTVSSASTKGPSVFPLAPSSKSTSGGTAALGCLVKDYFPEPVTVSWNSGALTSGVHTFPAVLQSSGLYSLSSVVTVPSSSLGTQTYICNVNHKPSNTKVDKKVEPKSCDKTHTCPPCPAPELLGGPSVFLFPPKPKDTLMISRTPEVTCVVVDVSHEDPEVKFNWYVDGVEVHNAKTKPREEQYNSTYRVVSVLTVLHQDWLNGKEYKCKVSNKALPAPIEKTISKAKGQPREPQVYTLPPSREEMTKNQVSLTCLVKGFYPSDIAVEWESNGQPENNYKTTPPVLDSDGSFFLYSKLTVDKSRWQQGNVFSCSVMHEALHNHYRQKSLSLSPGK
VL: DIQMTQSPSSLSASVGDRVTITCKASQDVGAAVAWYQQKPGKAPKLLIYWASTRHTGVPSRFSGSGSGTDFTLTISSLQPEDFATYYCQQYINYPLTFGGGTKVEIK
notes: also called SF2 antibody with T437R
Regarding B1, in experiment [1], the half-inhibitory concentration (IC50) (as a rule, the concentration needed to halve the response being measured) was found to be 1.1 µg/mL. Further, the concentration for a half-maximal effect (EC50) – broadly, the concentration giving half of the maximal effect – was 1.14 µg/mL in experiment [2], > 10 µg/mL in experiment [3], 0.24 µg/mL in the experiment with human FcγRI (NM_000566) and 4.13 µg/mL in experiment [4].

B2: OX40SF2IgG1T437R/K248E (antibody)
heavy: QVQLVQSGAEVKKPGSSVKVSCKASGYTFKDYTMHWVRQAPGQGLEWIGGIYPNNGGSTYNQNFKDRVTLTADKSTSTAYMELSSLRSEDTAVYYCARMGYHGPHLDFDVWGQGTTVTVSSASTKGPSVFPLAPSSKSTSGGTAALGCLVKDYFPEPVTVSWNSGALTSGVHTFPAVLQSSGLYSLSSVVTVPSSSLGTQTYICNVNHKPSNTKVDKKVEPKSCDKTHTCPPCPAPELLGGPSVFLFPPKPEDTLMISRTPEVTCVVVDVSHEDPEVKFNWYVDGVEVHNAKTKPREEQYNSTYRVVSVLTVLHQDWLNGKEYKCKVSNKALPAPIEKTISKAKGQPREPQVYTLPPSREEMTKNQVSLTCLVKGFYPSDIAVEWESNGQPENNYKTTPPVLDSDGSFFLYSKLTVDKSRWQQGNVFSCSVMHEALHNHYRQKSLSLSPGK
VL: DIQMTQSPSSLSASVGDRVTITCKASQDVGAAVAWYQQKPGKAPKLLIYWASTRHTGVPSRFSGSGSGTDFTLTISSLQPEDFATYYCQQYINYPLTFGGGTKVEIK
Regarding B2, the IC50 in experiment [1] amounted to 1.6 µg/mL. The EC50 is 1.56 µg/mL in experiment [2], > 10 µg/mL in experiment [3], 0.248 µg/mL with human FcγRI (NM_000566) and 3.39 µg/mL in experiment [4].

B3: OX40SF2IgG1 (antibody)
chain 1: not shown
chain 2: DIQMTQSPSSLSASVGDRVTITCKASQDVGAAVAWYQQKPGKAPKLLIYWASTRHTGVPSRFSGSGSGTDFTLTISSLQPEDFATYYCQQYINYPLTFGGGTKVEIKRTVAAPSVFIFPPSDEQLKSGTASVVCLLNNFYPREAKVQWKVDNALQSGNSQESVTEQDSKDSTYSLSSTLTLSKADYEKHKVYACEVTHQGLSSPVTKSFNRGEC
For the molecule B3, the EC50 in experiment [2] is 0.744 µg/mL; in experiment [3], > 10 µg/mL; with human FcγRI (NM_000566) it was 0.326 µg/mL; in experiment [4], 4.56 µg/mL.
